Source: the supplement of paper PMC10567573

B1: FAM98B (parent)
chain: QLDKNSEVYQEVQAMFDTLGIPKS

Variants of: B1
Test: protein stability index of a GFP-peptide fusion (GPS, HEK-293T) (PSI 1-6); higher = more stable
Conditions: c terminus: a fixed tail appended
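Also: lentivirally expressed fusions sorted by FACS into six bins by GFP to DsRed ratio, PSI derived from sequencing read proportions per bin multiplied by bin number.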

Going from QLDKNEEVYQEVQAMFDTLGIPKS [S6E] to QLDKNDEVYQEVQAMFDTLGIPKS [S6D], the protein stability index rises from 4.21 to 4.67.

Compared with QLDKNHEVYQEVQAMFDTLGIPKS [S6H], QLDKNMEVYQEVQAMFDTLGIPKS [S6M] is lower in protein stability index: 3.35 for the first, 3.23 for the second.

Compared with QLDKNFEVYQEVQAMFDTLGIPKS [S6F], QLDKNTEVYQEVQAMFDTLGIPKS [S6T] is higher in protein stability index: 2.63 for the first, 3.53 for the second.

Compared with QLDKNSEVEQEVQAMFDTLGIPKS [Y9E], QLDKNSEVVQEVQAMFDTLGIPKS [Y9V] is lower in protein stability index: 4.4 for the first, 3.27 for the second.

Going from QLDKNSEVQQEVQAMFDTLGIPKS [Y9Q] to QLDKNSEVMQEVQAMFDTLGIPKS [Y9M], the protein stability index falls from 3.98 to 3.66.

First: QLDKNSEVLQEVQAMFDTLGIPKS [Y9L]
Second: QLDKNSEVGQEVQAMFDTLGIPKS [Y9G]
The protein stability index of the first is lower: 3.2 for the first, 3.5 for the second.

Going from QLDKNSEVFQEVQAMFDTLGIPKS [Y9F] to QLDKNSEVRQEVQAMFDTLGIPKS [Y9R], the protein stability index rises from 2.72 to 3.12.

First: QLDKNSEVSQEVQAMFDTLGIPKS [Y9S]
Second: QLDKNSEVHQEVQAMFDTLGIPKS [Y9H]
The protein stability index of the first is higher: 3.78 for the first, 3.55 for the second.

Going from QLDKNSEVKQEVQAMFDTLGIPKS [Y9K] to QLDKNSEVNQEVQAMFDTLGIPKS [Y9N], the protein stability index falls from 3.72 to 3.52.

First: QLDKNSEVWQEVQAMFDTLGIPKS [Y9W]
Second: QLDKNSEVAQEVQAMFDTLGIPKS [Y9A]
The protein stability index of the first is lower: 3.31 for the first, 4.12 for the second.

Going from QLDKNSEVCQEVQAMFDTLGIPKS [Y9C] to QLDKNSEVPQEVQAMFDTLGIPKS [Y9P], the protein stability index falls from 3.58 to 3.57.

Going from QLDKNSEVTQEVQAMFDTLGIPKS [Y9T] to QLDKNSEVIQEVQAMFDTLGIPKS [Y9I], the protein stability index falls from 4.39 to 3.67.

Going from QLDKNSEVDQEVQAMFDTLGIPKS [Y9D] to QLDKNSEVYQNVQAMFDTLGIPKS [E11N], the protein stability index falls from 4.2 to 2.64.

Going from QLDKNSEVYQIVQAMFDTLGIPKS [E11I] to QLDKNSEVYQDVQAMFDTLGIPKS [E11D], the protein stability index rises from 1.67 to 2.86.

First: QLDKNSEVYQHVQAMFDTLGIPKS [E11H]
Second: QLDKNSEVYQAVQAMFDTLGIPKS [E11A]
The protein stability index of the first is higher: 3.46 for the first, 2.86 for the second.

Going from QLDKNSEVYQGVQAMFDTLGIPKS [E11G] to QLDKNSEVYQMVQAMFDTLGIPKS [E11M], the protein stability index falls from 2.78 to 2.36.

Compared with QLDKNSEVYQCVQAMFDTLGIPKS [E11C], QLDKNSEVYQLVQAMFDTLGIPKS [E11L] is lower in protein stability index: 2.48 for the first, 2.28 for the second.

Going from QLDKNSEVYQPVQAMFDTLGIPKS [E11P] to QLDKNSEVYQKVQAMFDTLGIPKS [E11K], the protein stability index falls from 2.88 to 1.69.

First: QLDKNSEVYQFVQAMFDTLGIPKS [E11F]
Second: QLDANSEVYQEVQAMFDTLGIPKS [K4A]
The protein stability index of the first is lower: 2.07 for the first, 3.04 for the second.

First: QLDTNSEVYQEVQAMFDTLGIPKS [K4T]
Second: QLDDNSEVYQEVQAMFDTLGIPKS [K4D]
The protein stability index of the first is lower: 3.08 for the first, 3.44 for the second.

Compared with QLDCNSEVYQEVQAMFDTLGIPKS [K4C], QLDRNSEVYQEVQAMFDTLGIPKS [K4R] is lower in protein stability index: 3 for the first, 2.95 for the second.

Going from QLDLNSEVYQEVQAMFDTLGIPKS [K4L] to QLDQNSEVYQEVQAMFDTLGIPKS [K4Q], the protein stability index falls from 3.39 to 3.03.

Going from QLDGNSEVYQEVQAMFDTLGIPKS [K4G] to QLDENSEVYQEVQAMFDTLGIPKS [K4E], the protein stability index rises from 3.5 to 3.62.

Going from QLDSNSEVYQEVQAMFDTLGIPKS [K4S] to QLDYNSEVYQEVQAMFDTLGIPKS [K4Y], the protein stability index falls from 3.52 to 3.39.

Going from QLDWNSEVYQEVQAMFDTLGIPKS [K4W] to QLDVNSEVYQEVQAMFDTLGIPKS [K4V], the protein stability index falls from 3.04 to 2.2.

Compared with QLDHNSEVYQEVQAMFDTLGIPKS [K4H], QLDPNSEVYQEVQAMFDTLGIPKS [K4P] is lower in protein stability index: 3.43 for the first, 3 for the second.

First: QLDNNSEVYQEVQAMFDTLGIPKS [K4N]
Second: QLDINSEVYQEVQAMFDTLGIPKS [K4I]
The protein stability index of the first is higher: 3.67 for the first, 2.56 for the second.

First: QLDMNSEVYQEVQAMFDTLGIPKS [K4M]
Second: QLDFNSEVYQEVQAMFDTLGIPKS [K4F]
The protein stability index of the first is lower: 2.85 for the first, 2.93 for the second.

Compared with QLDKNSEKYQEVQAMFDTLGIPKS [V8K], QLDKNSEYYQEVQAMFDTLGIPKS [V8Y] is lower in protein stability index: 3.07 for the first, 2.96 for the second.

Compared with QLDKNSEMYQEVQAMFDTLGIPKS [V8M], QLDKNSEIYQEVQAMFDTLGIPKS [V8I] is lower in protein stability index: 3.2 for the first, 2.73 for the second.

Compared with QLDKNSEQYQEVQAMFDTLGIPKS [V8Q], QLDKNSEWYQEVQAMFDTLGIPKS [V8W] is lower in protein stability index: 3.31 for the first, 2.88 for the second.

Going from QLDKNSEGYQEVQAMFDTLGIPKS [V8G] to QLDKNSEEYQEVQAMFDTLGIPKS [V8E], the protein stability index rises from 3.12 to 3.79.

Going from QLDKNSESYQEVQAMFDTLGIPKS [V8S] to QLDKNSERYQEVQAMFDTLGIPKS [V8R], the protein stability index rises from 3.35 to 3.36.

First: QLDKNSEDYQEVQAMFDTLGIPKS [V8D]
Second: QLDKNSEHYQEVQAMFDTLGIPKS [V8H]
The protein stability index of the first is higher: 3.62 for the first, 3.12 for the second.

Going from QLDKNSECYQEVQAMFDTLGIPKS [V8C] to QLDKNSETYQEVQAMFDTLGIPKS [V8T], the protein stability index rises from 3.02 to 3.81.

First: QLDKNSEPYQEVQAMFDTLGIPKS [V8P]
Second: QLDKNSELYQEVQAMFDTLGIPKS [V8L]
The protein stability index of the first is lower: 3.32 for the first, 3.47 for the second.

Going from QLDKNSENYQEVQAMFDTLGIPKS [V8N] to QLDKNSEAYQEVQAMFDTLGIPKS [V8A], the protein stability index falls from 3.94 to 3.85.

Going from QLDKNSEFYQEVQAMFDTLGIPKS [V8F] to QNDKNSEVYQEVQAMFDTLGIPKS [L2N], the protein stability index rises from 2.55 to 4.36.

First: QTDKNSEVYQEVQAMFDTLGIPKS [L2T]
Second: QPDKNSEVYQEVQAMFDTLGIPKS [L2P]
The protein stability index of the first is lower: 4.32 for the first, 4.66 for the second.

Going from QVDKNSEVYQEVQAMFDTLGIPKS [L2V] to QMDKNSEVYQEVQAMFDTLGIPKS [L2M], the protein stability index falls from 3.87 to 3.23.

Compared with QFDKNSEVYQEVQAMFDTLGIPKS [L2F], QYDKNSEVYQEVQAMFDTLGIPKS [L2Y] is higher in protein stability index: 3.51 for the first, 4.08 for the second.

Going from QQDKNSEVYQEVQAMFDTLGIPKS [L2Q] to QCDKNSEVYQEVQAMFDTLGIPKS [L2C], the protein stability index falls from 4.23 to 4.07.

First: QIDKNSEVYQEVQAMFDTLGIPKS [L2I]
Second: QADKNSEVYQEVQAMFDTLGIPKS [L2A]
The protein stability index of the first is lower: 3.08 for the first, 4.38 for the second.

Compared with QGDKNSEVYQEVQAMFDTLGIPKS [L2G], QEDKNSEVYQEVQAMFDTLGIPKS [L2E] is higher in protein stability index: 4.76 for the first, 5.34 for the second.

Compared with QRDKNSEVYQEVQAMFDTLGIPKS [L2R], QSDKNSEVYQEVQAMFDTLGIPKS [L2S] is higher in protein stability index: 3.58 for the first, 4.63 for the second.

Compared with QHDKNSEVYQEVQAMFDTLGIPKS [L2H], QDDKNSEVYQEVQAMFDTLGIPKS [L2D] is higher in protein stability index: 4.13 for the first, 4.67 for the second.

Going from QKDKNSEVYQEVQAMFDTLGIPKS [L2K] to QWDKNSEVYQEVQAMFDTLGIPKS [L2W], the protein stability index falls from 4.27 to 4.03.
